# Data taken from patent US20150037339A1 (Regeneron, published 2015).
# T1: Activin A (human, UniProt P08476 311-426)
# T1 construct: Homodimer of two βA subunits; bought from R&D Systems (#338-AC); also called inhibin-βA dimer; human Activin A
# T1 sequence: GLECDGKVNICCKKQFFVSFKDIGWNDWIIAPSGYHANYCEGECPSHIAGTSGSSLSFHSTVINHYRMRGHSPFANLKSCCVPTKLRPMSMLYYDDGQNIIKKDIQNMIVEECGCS
# T2: Activin B (human, UniProt P09529 293-407)
# T2 construct: Homodimer of two βB subunits; R&D Systems #659-AB
# T2 chain: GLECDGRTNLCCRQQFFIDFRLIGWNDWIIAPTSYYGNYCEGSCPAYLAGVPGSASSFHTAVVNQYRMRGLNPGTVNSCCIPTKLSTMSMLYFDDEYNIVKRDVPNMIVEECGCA
# Experiments:
# Activin A [1] = target: T1, Activin A; experiment: Octet cross-competition; binder on anti-hFc tip; 50 nM hActivin A pre-bound with 1 uM H4H10440P2 (col 9); white box
# Protocol: (§1) No. 8,309,082) and Control 3 (MAB3381, available from R&D Systems, Inc., Minneapolis, Minn.) were also included in the assays. All assays were performed at 25° C. with a microtiter plate shaking rate of 1000 rpm in Octet HBST buffer (0.01 M HEPES pH7.4, 0.15M NaCl, 3 mM EDTA, 0.05% v/v Surfactant P20, 0.1 mg/mL BSA) according to manufacturer's instructions (ForteBio Corp., Menlo Park, Calif.). […] Any remaining anti-hFc binding sites on the tips were blocked by incubating the tips in a 50 ug/mL solution of irrelevant antibody for 5 minutes.
# Activin A [2] = target: T1, Activin A; experiment: Octet cross-competition; binder on anti-hFc tip; 50 nM hActivin A pre-bound with 1 uM Control 3 (col 11); white box
# Protocol: as §1
# Activin A [3] = target: T1, Activin A; experiment: Octet cross-competition; binder on anti-hFc tip; 50 nM hActivin A pre-bound with 1 uM H4H10423P (col 4); black box
# Protocol: as §1
# Activin A [4] = target: T1, Activin A; experiment: Octet cross-competition; binder on anti-hFc tip; 50 nM hActivin A pre-bound with 1 uM H4H10446P2 (col 1); black box
# Protocol: as §1
# Activin B [5] = target: T2, Activin B; experiment: SPR, captured mAb, 25C
# In short: (§2)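 Association was monitored for 240 s and dissociation in buffer for 600 s. Rate constants came from kinetic fitting; KD was calculated as kd/ka and dissociative half-life as ln2/(60*kd), in minutes.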
# Activin A [6] = target: T1, Activin A; experiment: SPR, captured mAb, 25C
# In short: as §2
# Activin A [7] = target: T1, Activin A; experiment: SPR, captured mAb, 25C; no dissociation observed, kd fixed
# Protocol: (§3) Antibody-antigen association was monitored for 240 seconds while dissociation in buffer was monitored for 600 seconds. Kinetic association and dissociation rate constants were determined by processing and fitting the data using Scrubber software version 2.0c. Binding equilibrium dissociation constants (KD) and dissociative half-lives (t_{1/2}) were then calculated from the kinetic rate constants as: KD (M)=kd/kₐ and t_{1/2} (min)=[ln 2/(60*kd)]. (NB=no binding observed under the conditions used; NT=not tested).
# Activin B [8] = target: T2, Activin B; experiment: SPR, captured mAb, 37C
# In short: as §2
# Activin A [9] = target: T1, Activin A; experiment: SPR, captured mAb, 37C
# In short: as §2
# Activin A [10] = target: T1, Activin A; experiment: Octet cross-competition; binder on anti-hFc tip; 50 nM hActivin A pre-bound with 1 uM H4H10436P2 (col 8); white box
# Protocol: as §1
# Activin A [11] = target: T1, Activin A; experiment: SPR, captured mAb, 37C; no dissociation observed, kd fixed
# In short: as §2
# Activin A [12] = target: T1, Activin A; experiment: Octet cross-competition; binder on anti-hFc tip; 50 nM hActivin A pre-bound with 1 uM H4H10468P2 (col 2); black box
# Protocol: as §1
# Activin A [13] = target: T1, Activin A; experiment: Octet cross-competition; binder on anti-hFc tip; 50 nM hActivin A pre-bound with 1 uM H4H10430P (col 5); white box
# Protocol: as §1
# Activin A [14] = target: T1, Activin A; experiment: Octet cross-competition; binder on anti-hFc tip; 50 nM hActivin A pre-bound with 1 uM Control 1 (col 10); white box
# Protocol: as §1
# Activin A [15] = target: T1, Activin A; experiment: Octet cross-competition; binder on anti-hFc tip; 50 nM hActivin A pre-bound with 1 uM H4H10432P2 (col 7); white box
# Protocol: as §1
# Activin A [16] = target: T1, Activin A; experiment: Octet cross-competition; binder on anti-hFc tip; 50 nM hActivin A mixed with 1 uM Isotype control 12 (-) (col 12); dark grey box
# Protocol: as §1
# Activin A [17] = target: T1, Activin A; experiment: Octet cross-competition; binder on anti-hFc tip; 50 nM hActivin A mixed with 1 uM Isotype control 13 (-) (col 13); dark grey box
# Protocol: as §1
# Activin A [18] = target: T1, Activin A; experiment: Octet cross-competition; binder on anti-hFc tip; 50 nM hActivin A pre-bound with 1 uM H4H10429P (col 6); white box
# Protocol: as §1
# Activin A [19] = target: T1, Activin A; experiment: Octet cross-competition; binder on anti-hFc tip; 50 nM hActivin A pre-bound with 1 uM H4H10442P2 (col 3); black box
# Protocol: as §1
# Activin B [20] = target: T2, Activin B; experiment: SPR, captured mAb, 25C; 25 C
# Protocol: as §3
# Activin A [21] = target: T1, Activin A; experiment: Octet cross-competition; binder on anti-hFc tip; 50 nM hActivin A pre-bound with 1 uM H4H10430P (col 5); black box
# Protocol: as §1
Binder,binding response (Activin A [1]),binding response (Activin A [2]),binding response (Activin A [3]),binding response (Activin A [4]),50 nM Ag Bound (RU) (Activin B [5]),Activin A-20 nM (RU) (Activin A [6]),Kd (Activin A [6]) [pM],kon (Activin A [6]) [M⁻¹ s⁻¹],t1/2 (Activin A [6]) [h],Activin A-20 nM (RU) (Activin A [9]),Kd (Activin A [9]) [pM],kon (Activin A [9]) [M⁻¹ s⁻¹],t1/2 (Activin A [9]) [h],binding response (Activin A [10]),koff (Activin A [11]) [s⁻¹],binding response (Activin A [14]),binding response (Activin A [15]),binding response (Activin A [16]),binding response (Activin A [17]),binding response (Activin A [18]),other results
"H4H10442P2 (antibody, human IgG4, V domains shown) VH: QVQLQESGPGLVKPSETLSITCTVSGGSFSSHFWTWIRQPPGKGLEWIGYLHYSGGTSYNPSLKSRVIISVDTSKNQFSLKLNSVTAADTAVYYCARARSGITFGGLIVPGSFDIWGQGTMVTVSS VL: not shown",1.5,0.99,0.27,0.35,3.4,31.3,≤ 4.55,1.1e+07,≥ 3.85,40.5,≤ 3.48,1.44e+07,≥ 3.85,1.44,≤ 5e-05,0.99,1.59,0.46,0.26,1.55,binding result (Activin B [5]): no binding (tested: 50 nM); koff (Activin A [7]): ≤ 5e-05 s⁻¹; 50 nM Ag Bound (RU) (Activin B [8]): 4.4 RU; binding response (Activin A [12]): 0.36; binding response (Activin A [13]): 1.33
"H4H10468P2 (antibody, human IgG4, V domains shown) VH: QVQLQESGPGLVKPSETLSLTCTVSGGSFSSHFWSWIRQPPGKGLEWIGYIYYSGGTHYNPSLESRVTISVDTSKNQFSLKLNSVTAADTAVYYCARARSGITFGGLIVPGSFDIWGQGTMVTVSS VL: not shown",1.7,0.79,0.41,0.33,6.2,21.7,≤ 6.36,7.86e+06,≥ 3.85,24.5,≤ 4.1,1.22e+07,≥ 3.85,1.66,≤ 5e-05,1.08,1.73,0.41,0.28,1.68,koff (Activin A [7]): ≤ 5e-05 s⁻¹; 50 nM Ag Bound (RU) (Activin B [8]): 3.4 RU; binding result (Activin B [8]): no binding (tested: 50 nM); binding response (Activin A [13]): 1.41; binding response (Activin A [19]): 0.4
"H4H10446P2 (antibody, human IgG4, V domains shown, also called H4H20446) VH: QVQLQESGPGLVKPSETLSLTCTVSGGSFSSHFWSWIRQPPGKGLEWIGYILYTGGTSFNPSLKSRVSMSVGTSKNQFSLKLSSVTAADTAVYYCARARSGITFTGIIVPGSFDIWGQGTMVTVSS VL: not shown",1.67,1.21,0.33,–,3.6,24.1,≤ 3.88,1.29e+07,≥ 3.85,31.5,≤ 3.25,1.54e+07,≥ 3.85,1.61,≤ 5e-05,0.83,1.68,0.47,0.26,1.61,koff (Activin A [7]): ≤ 5e-05 s⁻¹; 50 nM Ag Bound (RU) (Activin B [8]): 3.8 RU; binding result (Activin B [8]): no binding (tested: 50 nM); binding response (Activin A [12]): 0.36; binding response (Activin A [13]): 1.39; binding response (Activin A [19]): 0.39
"H4H10423P (antibody, human IgG4, V domains shown) VH: QVQLQQSGPGLLKPSQTLSLTCAISGDSVSSNSAAWSWIRQSPSRGLEWLGRTYYRANWFNDYALSVKSRITINPVTSTNHFSLQLHSVTPEDTAVYYCAREGALGYYFDSWGQGTLVTVSS VL: not shown",1.31,0.79,–,0.51,–,19.4,32.6,3.33e+06,1.77,25.2,≤ 12.6,3.95e+06,≥ 3.85,1.49,≤ 5e-05,0.6,1.32,0.39,0.26,1.48,Kd (Activin B [20]): 61800 pM; koff (Activin B [20]): 0.0302 s⁻¹; kon (Activin B [20]): 489000 M⁻¹ s⁻¹; t1/2 (Activin B [20]): 24 s; binding response (Activin A [21]): 0.28; koff (Activin A [6]): 0.000109 s⁻¹; binding response (Activin A [12]): 0.58; binding response (Activin A [19]): 0.59
